In US20230009582A1 (MEMO THERAPEUTICS, published 2023):

T1: Siglec-15-Fc (R&D systems) (UniProt Q6ZMC9 20-263, limits assumed)
T1 construct: Bought reagent; not shown: Fc part of the bought fusion; not described
T1 sequence (looked up): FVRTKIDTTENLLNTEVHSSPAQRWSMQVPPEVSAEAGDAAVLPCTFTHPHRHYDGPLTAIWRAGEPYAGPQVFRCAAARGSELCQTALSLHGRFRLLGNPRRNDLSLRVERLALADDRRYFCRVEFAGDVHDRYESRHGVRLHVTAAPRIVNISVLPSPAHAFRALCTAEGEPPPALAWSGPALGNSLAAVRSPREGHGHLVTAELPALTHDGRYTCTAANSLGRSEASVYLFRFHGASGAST

T2: Siglec-5-Fc (R&D systems) (UniProt O15389 17-434, limits assumed)
T2 construct: Bought reagent; not shown: Fc part of the bought fusion; not described
T2 sequence (looked up): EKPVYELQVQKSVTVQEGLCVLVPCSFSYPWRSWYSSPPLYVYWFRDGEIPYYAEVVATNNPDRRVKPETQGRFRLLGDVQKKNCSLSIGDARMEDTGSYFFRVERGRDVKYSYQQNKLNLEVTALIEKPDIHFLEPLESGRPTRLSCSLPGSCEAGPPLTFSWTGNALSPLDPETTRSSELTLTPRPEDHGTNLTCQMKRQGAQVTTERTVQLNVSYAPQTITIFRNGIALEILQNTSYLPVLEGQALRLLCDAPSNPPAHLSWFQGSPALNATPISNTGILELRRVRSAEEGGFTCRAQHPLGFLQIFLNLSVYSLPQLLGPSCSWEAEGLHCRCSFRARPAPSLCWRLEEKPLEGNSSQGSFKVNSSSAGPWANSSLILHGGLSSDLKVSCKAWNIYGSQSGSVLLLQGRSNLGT

B1: monoclonal antibody 224B1 (rabbit) (antibody, V domains shown)
VH: QSVEESGGRLVTPETPLTLTCTASGFSLSSYYMSWVRQAPGKGLEWIGYIWTDGSAHYATWTKGRFTISKTSSTTVDLKITSPTTEDTATYFCVRANSGSHTYIEKFNLWGPGTLVTVSS
VL: DVVMTQTPASVEATVGGSVTIKCQASPSINDELSWYQQKPGQRPTLLIYEASALESGVPSRFKGSGSGTEFTLTIGDLECADAATYYCQCTYGSRSDISYGNTFGGGTEVVVKG
B2: comparative monoclonal antibody mAbA (WO 2017/153433), mouse-human chimera (antibody, human IgG1, kappa, V domains shown)
VH: QVQLQQPGAELVKPGSPVKLSCKASYFTFTSYWMHWVRQRPGQGLEWIGEINPSNGHTNYNEKFESKATLTVDRSSSTAYMQLSSLTSEDSAVFYCANGVESYDFDDALDYWGQGTSVTVSS
VL: DIQMTQTTSSLSASLGDRVTISCRASQDINNYLNWYQQKPDGTIKLLIYYTSRLHSGVPSRFSGSGSGTDYSLTINNLEQEDIATYFCQQGNTLPFTFGGGTKLEIKR

Key:
[1] = target: T3, Siglec-9 expressed on cells (human, UniProt Q9Y336 18-463); test: flow cytometry on human CD14+ monocytes in PBMC
T3 construct: also called monocyte-expressed Siglec-9
T3 sequence (Q9Y336 18-463 limits assumed): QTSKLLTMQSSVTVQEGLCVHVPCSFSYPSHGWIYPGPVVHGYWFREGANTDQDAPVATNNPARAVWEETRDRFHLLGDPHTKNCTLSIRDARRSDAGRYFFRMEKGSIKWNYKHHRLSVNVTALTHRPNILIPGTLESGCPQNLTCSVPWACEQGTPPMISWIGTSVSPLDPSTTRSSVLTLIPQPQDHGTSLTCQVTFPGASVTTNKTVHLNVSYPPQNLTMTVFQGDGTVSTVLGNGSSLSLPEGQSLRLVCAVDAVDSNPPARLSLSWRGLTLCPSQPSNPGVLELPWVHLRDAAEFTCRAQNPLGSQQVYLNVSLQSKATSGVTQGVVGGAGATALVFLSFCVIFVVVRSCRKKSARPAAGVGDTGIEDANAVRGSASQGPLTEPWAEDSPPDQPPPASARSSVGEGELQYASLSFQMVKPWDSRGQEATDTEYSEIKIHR
Procedure: (§1) Human ex vivo PBMC were stained with fluorescence-labeled (allophycocyanin, APC) antibody to the monocyte marker CD14 (Biolegend) in assay buffer (0.5% (v/v) heat-inactivated fetal bovine serum (Gibco), 2 mM EDTA in phosphate-buffered saline). Subsequently, cells were incubated with antibodies under evaluation at various concentrations (67 nM-0.38 pM). After a washing step cells were incubated with fluorescence-labeled (Brilliant Violet 421™) secondary antibody against human IgG (mAbA) or rabbit IgG (all other monoclonal antibodies under evaluation; both secondary antibodies from Biolegend).
(§2) Binding of Siglec-9-specific antibodies to monocytes (CD14-positive life cells) was analysed with a CytoFLEX flow cytometer (Beckham Coulter's). The mean fluorescence intensity of the secondary antibody staining in the CD14-positive population at each dilution was determined using Flow Jo software (BD). Datapoints generated by this analysis were fitted and EC50 values were determined by three-parameter analysis in GraphPad Prism (GraphPad Software)

[2] = target: T4, Siglec-7-Fc (in-house production); test: ELISA, coated Siglec-7-Fc 1 µg/ml, antibody at 5 µg/ml (33 nM), Abs 450 nm, n=3
T4 construct: The entry holds the Siglec-7 part and the Fc together; also called Siglec-7-Fc protein
T4 sequence (chain, as listed by the source limits assumed): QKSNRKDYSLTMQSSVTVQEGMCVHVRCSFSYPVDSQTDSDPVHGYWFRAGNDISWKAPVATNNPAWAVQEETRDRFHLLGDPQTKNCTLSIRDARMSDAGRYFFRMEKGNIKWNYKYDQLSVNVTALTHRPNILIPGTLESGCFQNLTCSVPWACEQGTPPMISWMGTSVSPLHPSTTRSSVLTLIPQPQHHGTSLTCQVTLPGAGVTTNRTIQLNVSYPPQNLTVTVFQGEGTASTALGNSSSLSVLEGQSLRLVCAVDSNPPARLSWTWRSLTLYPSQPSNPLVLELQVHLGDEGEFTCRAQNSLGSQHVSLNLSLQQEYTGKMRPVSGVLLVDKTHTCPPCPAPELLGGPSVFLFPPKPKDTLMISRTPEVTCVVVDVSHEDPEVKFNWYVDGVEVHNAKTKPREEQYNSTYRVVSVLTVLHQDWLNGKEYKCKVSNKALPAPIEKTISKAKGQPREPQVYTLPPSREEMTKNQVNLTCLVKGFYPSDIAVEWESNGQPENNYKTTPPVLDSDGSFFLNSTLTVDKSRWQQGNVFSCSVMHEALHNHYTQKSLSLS
Procedure: (§3) Specificity towards Siglec-5, Siglec-7, Siglec-8, Siglec-15 and Siglec-9 was assayed in enzyme-linked immunosorbent assay (ELISA) using 96 well half-area ELISA plates (Corning). Siglec-5-Fc (R&D systems), Siglec-7-Fc (in-house production, Siglec-7-Fc protein used had the following amino acid sequence:
(§4) (SEQ ID NO: 59)) […] […] […] […] […] […] […] […] […] […] […] […], Siglec-8-Fc (R&D systems), Siglec-15- Fc (R&D systems) and Siglec-9-Fc (in-house production, SEQ ID NO: 11) were coated at 1 μg/ml in 50 mM carbonate-bicarbonate buffer pH 9.6 for 15-20 hours at 4° C.
(§5) Antigens were washed away (Tecan Hydrospeed) and plates were blocked with 5% skimmed milk in phosphate-buffered saline (PBS). After washing the plates, antibodies were added at 5 μg/ml (33 nM) in 0.5% milk PBS in triplicates. Plates with antibodies were incubated for 1 hour at room temperature. Plates were washed and bound antibodies were detected by horseradish peroxidase (HRP)-labeled polyclonal anti-rabbit IgG antibody (Biolegend) or anti-human Fab fragment for mAbA (Sigma Aldrich). 3,3′,5,5′-Tetramethylbenzidine (TMB; Sigma Aldrich) development was stopped by addition of sulfuric acid and absorbance was detected at 450 nm (Tecan, CM […] MONO 200).

[3] = target: T5, Siglec-8-Fc (R&D systems) (UniProt Q9NYZ4 17-363, limits assumed); test: ELISA, coated Siglec-8-Fc 1 µg/ml, single antibody concentration, Abs 450 nm, n=3
T5 construct: Bought reagent; not shown: Fc part of the bought fusion; not described
T5 sequence (Q9NYZ4 17-363 limits assumed): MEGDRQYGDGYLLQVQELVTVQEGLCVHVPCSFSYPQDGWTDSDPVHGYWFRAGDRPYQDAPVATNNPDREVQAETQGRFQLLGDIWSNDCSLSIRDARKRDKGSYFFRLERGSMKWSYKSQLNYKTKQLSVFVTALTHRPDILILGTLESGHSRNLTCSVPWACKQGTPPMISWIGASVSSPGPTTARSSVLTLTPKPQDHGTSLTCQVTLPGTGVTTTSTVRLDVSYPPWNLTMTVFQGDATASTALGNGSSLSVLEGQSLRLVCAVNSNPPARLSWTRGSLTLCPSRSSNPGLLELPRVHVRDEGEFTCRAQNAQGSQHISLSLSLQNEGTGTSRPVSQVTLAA
Procedure: as §3, §4, §5

[4] = target: T1, Siglec-15-Fc (R&D systems); test: ELISA, coated Siglec-15-Fc 1 µg/ml, single antibody concentration, Abs 450 nm, n=3
Procedure: as §3, §4, §5

[5] = target: T3, Siglec-9 expressed on cells; test: flow cytometry on human CD14+ monocytes (PBMC), mean RFU of the anti-human secondary antibody, three-parameter fit
Procedure: as §1, §2

[6] = target: extra-cellular domain of Siglec-9 fused to a C-terminal his-tag (Homo sapiens (Human), UniProt Q9Y336 18-348); test: ELISA, coated his-tagged Siglec-9 extracellular domain, anti-human Fc gamma detection, Abs 450 nm
Chain of extra-cellular domain of Siglec-9 fused to a C-terminal his-tag (Q9Y336 18-348 limits assumed): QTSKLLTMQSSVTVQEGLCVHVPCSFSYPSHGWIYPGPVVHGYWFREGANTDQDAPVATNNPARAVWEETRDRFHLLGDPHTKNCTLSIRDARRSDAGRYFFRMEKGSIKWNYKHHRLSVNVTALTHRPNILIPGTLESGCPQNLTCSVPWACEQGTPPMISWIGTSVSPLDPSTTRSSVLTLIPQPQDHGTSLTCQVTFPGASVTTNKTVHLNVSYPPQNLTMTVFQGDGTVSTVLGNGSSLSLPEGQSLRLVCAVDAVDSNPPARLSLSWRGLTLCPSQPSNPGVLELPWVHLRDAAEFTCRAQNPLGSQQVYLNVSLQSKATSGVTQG
From the text: (SEQ ID NO: 44) […] […] […] […] […] […] […]. For detection of bound IgG either polyclonal anti- rabbit IgG antibody (68D4; Biolegend, #406401), or anti-human Fey fragment (humanized 68D4 and mAbA; Jackson Immuno Research laboratories, #109-035-098) were used.

[7] = target: T4, Siglec-7-Fc (in-house production); test: ELISA, coated Siglec-7-Fc 1 µg/ml, single antibody concentration, anti-human Fab detection, Abs 450 nm, n=3
Procedure: as §3, §4, §5

[8] = target: T2, Siglec-5-Fc (R&D systems); test: ELISA, coated Siglec-5-Fc 1 µg/ml, single antibody concentration, anti-human Fab detection, Abs 450 nm, n=3
Procedure: as §3, §4, §5

[9] = target: T5, Siglec-8-Fc (R&D systems); test: ELISA, coated Siglec-8-Fc 1 µg/ml, single antibody concentration, anti-human Fab detection, Abs 450 nm, n=3
Procedure: as §3, §4, §5

Row | Binder | fold stronger binding than 5C6 [1] | binding result [2] | binding result [3] | binding result [4] | EC50 [5] | EC50 (read off the curve) [6] | binding result [7] | binding result [8] | binding result [9]
1 | B1 | ~10 fold | binds | no binding (tested: 5 µg/ml) | no binding (tested: 5 µg/ml) |  |  |  |  | 
2 | B2 |  |  |  |  | 0.58 nM | ~0.06 nM | no binding (tested: 5 µg/ml) | no binding (tested: 5 µg/ml) | no binding (tested: 5 µg/ml)
